The results in this text go back to the DeepSol protein solubility set.

The data set can be described thus: soluble on expression in E. coli; label from the status in PepcDB or PDB records.
In the case of “MIYRFTIISDEVDDFVREIQIDPEATFLDFHEAILKSVGYTNDQMTSFFICDDDWEKEKEVTLEEMDDNPEMDSWIMKETTISELVEDEKQKLLYVFDYMTERCFFIELSEIITGKDMNGAKCTKKSGDAPPQTVDFEEMAAASGSLDLDENFYGDQDFDMEDFDQEGFDIGGNAGGSYEEEKFLEHHHHHH”, the “soluble on expression in E. coli” value is recorded as “soluble”.
In the case of “MGSDKIHHHHHHMTITAMLNPVWIQTFATVAAARSFTEAGRQLGLSQSSVSDHIRRLEQSVGRRLFVRDTHSLSMTPDGEALLVHARLILEALARAESQFTAPRLRGRVRLGTSEDLAQGPLSGVLSAFRNTHPDVEMEITIAMTSKLYELMDAGSLDLMLGKRRQGDRRGVPLFRGSLEWLARPGTVVDLSQPLPLILVHEPSVTRSVVLDTLAKAGCQWQVVCSSSSHSGCLAAARGGLGLTVRSRYLYGEGVAPPLNWEKLPALPEVEFISLSARRLSQPAETLLRLLQKSDLRAASSWTSA”, the “soluble on expression in E. coli” value is on record as “not soluble”.
Regarding “SGGGGKAWPTHVVCSDSGLEVLYQSCDPLQDFGFSVEKCSKQLKSNINIRFGIILREDIKELFLDLALMSQGSSVLNFSYPICEAALPKFSFCGRRKGEQIYYAGPVNNPEFTIPQGEYQVLLELYTEKRSTVACANATIMCS”, the “soluble on expression in E. coli” value is given as “soluble”.
The entry for “MVTETLSRKADYNANKLRKRLRRLVGTAIADFNMIEKGDRVMVCLSGGKDSYALLDILRNLQAHAPLDFELIAVNLDQKQPGFPEHVLPGYLSEINMPFRIVEQDTYSVVKRVIAEGKTTCSLCSRLRRGVLYRVATELGATKIALGHHRDDILETFFLNMFYGGKLKAMPPKLVSDDGCHVVIRPLAYCKEKDLAAYAWHAQFPIIPCNLCGSQPNLQRQVIKEMMQQWDKKYPGRLETMFTALQNIQLSHLADTSRYDFVGLKPHGIAIEEGDKAFDEEPLSVIPVDMDHDDDSTFEPENEHDGGAVQGGVI” is “not soluble”; for “GPGSMTYKLLAPLHPESARAQKIMVAAAYANVDVELKVCQYGQENETPEFARNCSPCMRFPSMQTEEGYLFESNAIMRHIARVEKSGAKLYGATPFESSQVDMWLDFASSELDAHNTPYLMETFAGIPAPESAMATLEESLAGLELWLETRTFLVGERMTVADISVAFALQWVYRMNVKHGEELTKKYRNAYRLYNTVMQQPKTVEVLKQWGATFGPAKAPKKAAEAKPKEGKKPKEAVEDEEEQPAKEEKKSNPLDALPPSSFVLDAYKREYSNTDTRTVAAPYFFEHYDAEGYTCFWARYKYNEDNKKQFMTANLVRGWFQRMEHVRKYAFGVALIIGEDAAHELVSFWVFRGKGMPEIVSEVVDTELFEWEEIKDVQAAKEKITDYLCWEGPTIPRPVLEGRCFK” it is “soluble”; for “MRFFIALPAHAKRCRRAWRMEFISALPVGFAMNRRGLELRELLPLIPAEKLLIETDAPYLLPRDLTPKPSSRRNEPAHLPHILQRIAHWRGEDAAWLAATTDANVKTLFGIAFLEHHHHHH” it is “not soluble”.
The result for “MSLKGAQILVVEDELIVGMMIKLKLAKMGYCVSCMASTGADAVAMVEKVRPELVLMDIRLKGSLDGVEAAMMIRKISNIPIVFITADSSLETRERAELACPQGFLLKPFMDEELGSLVRSVFSNSMGGASAVNANEGHHHHHH” reads “not soluble”; that for “MGSDKIHHHHHHMAILNISELEQVEKFRQLQLTLRDRWKTIESFDNSEADILIIPSLSIDQRELQKIEGCEHYEERLLFSLIRLQNPRTRLIYVTSVPLHPSIIDYYLQLLPGIPFSHARNRLLLLSTYDSSLKPLSQKILERPRLLERIHQSLRLDKSFMICYNSSHWEGELSLKLGVPLYAAAPDLQIWGTKSGSRQIFKGSGVPHPDGSEKIWNHTDLAEATSDLWERQPTLKRVVVKLNEGISGEGNALLDLRPIENLAPGIGTHAQRVAAISDRFSTMRFQAKLETWDNFSGRIPELGAIAEAFVEGEIKRSPSVQGRITPTGEVEILSTHDQILGGPDGQIYLGCRFPADESYRLQLQQLGLQVGRTLAEKGTLERFGVDFIAVDKGNGEWDIQAIEINLRKGGTTHPFMTLKLLTNGRYDLSTGLFYSQQGRPKYYIATDNLQKERYQGLLPNDLMDIIAHHRLHFDSGTETGTVFHLMGCLSQFGKLGLTSIGDSPQQAQDIYNKVVKVLDEETRSENRDFSAFSDYSFPVAWDEYR”, “not soluble”.
